Numbering of substitutions follows the chain as printed.

In test [1] the target is T1, human DLL4 overexpressed on cells (human, UniProt Q9NR61 27-685).
T1 construct: full length human DLL4 on CHO or HEK293 cells; also called CHO-hDLL4; CHO-hDII4
In words: competitive FMAT, hNotch1-Fc on CHO-hDLL4.

Test [2] concerns the target T2, recombinant human DLL4 (human, UniProt Q9NR61 25-522).
T2 construct: also called rhDLL4; hDLL4
In words: SPR Biacore T100, hDLL4 on chip, VHH/Fab injected.

Test [3] addresses mDLL4.12 (mouse). In words: Biacore, VHH on chip, 200 nM DLL4 sample injected.
Test [4] deals with hDLL4.6 (human). Put plainly: Biacore, VHH on chip, 200 nM DLL4 sample injected. (Surface plasmon resonance follows binding to a sensor surface in real time, without labels.)
For test [5], the target named is T2, recombinant human DLL4. Put plainly: Biacore, VHH on chip, 200 nM DLL4 sample injected.
The target in test [6] is hDLL4.3 (human). Put plainly: Biacore, VHH on chip, 200 nM DLL4 sample injected.
The target in test [7] is T2, recombinant human DLL4. In words: binding ELISA, coated rhDLL4. The method, then:
In order to determine cross-reactivity to mouse DII4 a binding ELISA is performed. […] Wells are blocked with a casein solution (1% in PBS). VHHs are applied as dilution series and binding is detected using a mouse anti-myc (Roche) and an anti-mouse-AP conjugate (Sigma, St Louis, Mo., USA) (FIG. 7 A-H). As reference, binding to human DII4 is measured.

The target in test [8] is T2, recombinant human DLL4. In words: competition ELISA, biot-hDLL4 to coated hNotch1-Fc. The text has this:
Residual binding of biotinylated human DII4 is detected using horseradish peroxidase (HRP) conjugated extravidin (Sigma, St. Louis, Mo., USA) (FIG. 3 A-C). Human DII4 is biotinylated as described above.

Test [9] deals with T3, cynomolgus DLL4 overexpressed on cells (cynomolgus, UniProt Q9NR61 27-685 (human entry)).
T3 construct: also called cyno DII4; cDLL4
T3 chain: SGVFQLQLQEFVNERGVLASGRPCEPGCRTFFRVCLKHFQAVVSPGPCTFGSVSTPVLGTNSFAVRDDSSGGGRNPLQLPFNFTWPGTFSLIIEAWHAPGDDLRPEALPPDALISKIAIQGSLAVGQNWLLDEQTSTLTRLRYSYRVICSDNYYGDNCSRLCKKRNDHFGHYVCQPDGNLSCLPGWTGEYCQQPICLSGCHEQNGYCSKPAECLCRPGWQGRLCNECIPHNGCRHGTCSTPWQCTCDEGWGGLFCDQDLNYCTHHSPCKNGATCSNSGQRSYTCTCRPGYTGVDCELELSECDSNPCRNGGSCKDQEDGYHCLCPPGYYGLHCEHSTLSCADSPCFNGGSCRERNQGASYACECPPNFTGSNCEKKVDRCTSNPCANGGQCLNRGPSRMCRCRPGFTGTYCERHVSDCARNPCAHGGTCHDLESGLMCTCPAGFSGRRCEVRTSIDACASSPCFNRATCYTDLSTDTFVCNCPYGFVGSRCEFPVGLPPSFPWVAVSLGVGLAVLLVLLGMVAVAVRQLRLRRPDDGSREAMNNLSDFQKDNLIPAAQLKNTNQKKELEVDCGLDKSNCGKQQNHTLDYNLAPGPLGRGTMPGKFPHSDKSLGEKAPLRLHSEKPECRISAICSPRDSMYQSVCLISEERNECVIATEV
In words: FACS titration on HEK293-cDLL4 cells, MCF. An outline of the steps:
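HEK293 cells overexpressing DLL4 (transient or stable) were incubated with VHH titrations for 30 min on ice. After washing, binding was detected with anti-c-myc-Alexa647 by flow cytometry, and the mean MCF was used to calculate EC50.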

The target of test [10] is T4, human DLL1 (Alexis) (human, UniProt O00548 18-545, limits assumed).
T4 construct: also called hDLL1
T4 sequence (looked up): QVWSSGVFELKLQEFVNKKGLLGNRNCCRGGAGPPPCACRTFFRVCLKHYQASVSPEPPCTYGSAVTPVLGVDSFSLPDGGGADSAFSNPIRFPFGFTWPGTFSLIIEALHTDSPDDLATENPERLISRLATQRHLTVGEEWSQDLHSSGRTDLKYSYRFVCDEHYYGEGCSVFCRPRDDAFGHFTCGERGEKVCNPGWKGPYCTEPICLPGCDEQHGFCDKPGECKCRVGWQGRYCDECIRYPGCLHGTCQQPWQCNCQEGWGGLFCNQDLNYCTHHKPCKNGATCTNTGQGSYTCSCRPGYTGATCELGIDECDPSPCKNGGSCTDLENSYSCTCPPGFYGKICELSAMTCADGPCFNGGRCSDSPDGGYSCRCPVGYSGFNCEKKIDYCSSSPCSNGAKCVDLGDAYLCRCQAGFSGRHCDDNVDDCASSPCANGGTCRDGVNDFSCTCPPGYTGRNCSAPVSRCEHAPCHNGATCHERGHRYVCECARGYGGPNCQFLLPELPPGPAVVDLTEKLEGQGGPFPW
Put plainly: binding ELISA on coated human DLL1 (Example 5.8, Example 7), OD 450 nm. Background: In an ELISA, binding on a coated surface is turned into a signal by an enzyme label.

In test [11] the target is T5, human Jagged-1 (Alexis) (human, UniProt P78504 34-1067, limits assumed).
T5 construct: also called hJag-1; hJAG1
Put plainly: binding ELISA on coated human Jagged-1 (Example 5.8, Example 7), OD 405 nm.

B1: DLLBII101G08 (VHH)
VHH: EVQLVESGGGLVQAGGSLRLSCAASGRTFSSYAMAWFRQAPGKEREFVAAIRWSGGTAYYADSVQGRFTISRDNAKNTVYLQMNSLKPEDTAVYYCANRAADTRLGPYEYDYWGQGTQVTVSS
notes: also called 101G8; DLLBII101G8
As a reminder, the IC50 is the concentration at which inhibition is half-maximal. By Kd is commonly meant a measure of binding affinity in units of concentration. The term koff denotes the rate constant with which the complex falls apart. As usually defined, the kon is the rate constant with which the complex forms. A word on the EC50: it is the concentration that produces a half-maximal response. What is called EC50 (read off the curve) is the concentration giving half of the maximal effect. A lower EC50 (read off the curve) goes with an effect from little substance. With B1, the IC50 in test [1] is 24.6 nM; in test [8], 9.5 nM. Also, the Kd in test [2] was determined as 52 nM. In addition, the koff in test [2] is 0.0022 s⁻¹; in test [3], 0.00452 s⁻¹; in test [4], 0.0022 s⁻¹; in [5], 0.002 s⁻¹; in test [6], 0.00465 s⁻¹. Moreover, the kon in test [2] is 43000 M⁻¹ s⁻¹. Besides, the “Binding (RU)” value was 244 RU in test [3], 229 RU in test [4], 373 RU in [5] and 198 RU in test [6]. For the same molecule, in test [7], the EC50 worked out at 8.9 nM. Also, the 50% effective concentration (EC50 (read off the curve)) in test [9] is ~9 nM.

B2: DLLBII101G08 (VHH, not shown: small tags and cut ends)
VHH: B1 VHH
notes: parent VHH; also called 101G08 (wt); 101G8
In the case of B2, the binding result in test [10] is “no binding (tested: log[M] -6.1 (about 8e-7 M))”.

B3: DLLBII129E11 (VHH, not shown: small tags and cut ends)
VHH: B1 VHH with F37Y, F47Y, A101P, G106R, E109L
On to B3, for which the binding result in test [10] is “no binding (tested: log[M] -6.1 (about 8e-7 M))”.

B4: DLLBII129D08 (VHH, not shown: small tags and cut ends)
VHH: B1 VHH with F37Y, F47Y, A101P, G106E, E109L
Take B4: in test [10], the binding result is “no binding (tested: log[M] -6.1 (about 8e-7 M))”.

B5: DLLBII129B05 (VHH, not shown: small tags and cut ends)
VHH: B1 VHH with F37Y, F47Y, A101P, G106A, Y112H
As for B5, in [10], the binding result was “no binding (tested: log[M] -6.1 (about 8e-7 M))”.

B6: DLLBII56A09 (VHH)
VHH: EVQLVESGGGLVQPGGSLRLSCAASGFTFDDYAIGWFRQAPGKEPEGISCISSSGGITYYADSVKGRFTTSRDNAKNTVYLQMNSLKPEDTAVYYCATPGIAACRGIHYTGQGTQVTVSS
notes: also called 56A9; DLLBII56A9
Take B6: the IC50 in test [1] turned out to be 10.6 nM; in test [8], 4.9 nM. Also, the Kd in test [2] was found to be 5.6 nM. Moreover, the koff was found to be 0.00093 s⁻¹ in test [2]; 0.0013 s⁻¹ in [3]; 0.0011 s⁻¹ in [4]; 0.00095 s⁻¹ in [5]; 0.00074 s⁻¹ in test [6]. Also, the kon in test [2] worked out at 170000 M⁻¹ s⁻¹. Further, the “Binding (RU)” value in test [3] was found to be 161 RU; in test [4] it was 136 RU; in test [5], 281 RU; in [6] it was 125 RU. Further, the EC50 in test [7] was found to be 3.6 nM. In addition, in test [9], the “EC50 (read off the curve)” value was ~3 nM.

B7: DLLBII115A05 (VHH)
VHH: EVQLVESGGGLVQPGGSLRLSCAASGFTFGSYDMSWVRRSPGKGPEWVSSINSGGGSTYYADFVKGRFTISRDNAKNTLYLQMNSLKPEDTAVYYCAADRYIRARQGDYWGAYEYDYWGQGTQVTVSS
notes: also called 115A5; DLLBII115A5
For B7, the IC50 in [1] was found to be 22 nM; in [8] it was 9.1 nM. The Kd in test [2] was 25 nM. In addition, the koff worked out at 0.0039 s⁻¹ in [2]; 0.0031 s⁻¹ in test [3]; 0.0041 s⁻¹ in [4]; 0.0035 s⁻¹ in [5]; 0.0035 s⁻¹ in [6]. For the same molecule, the on-rate (kon) in test [2] is 150000 M⁻¹ s⁻¹. The “Binding (RU)” value in test [3] is 152 RU; in test [4], 152 RU; in test [5], 324 RU; in test [6] it was 137 RU. The concentration for a half-maximal effect (EC50) in [7] amounted to 5 nM. For the same molecule, the “EC50 (read off the curve)” value in test [9] is ~4 nM.

B8: DLLBII133G05 (VHH, not shown: small tags and cut ends)
VHH: B7 VHH with S50A, A61T, F63Y, R103W, D108E, E114A
On to B8, for which the binding result in [11] is “no binding (tested: log[M] -6.1 (about 8e-7 M))”.

B9: DLLBII133A09 (VHH, not shown: small tags and cut ends)
VHH: B7 VHH with S50A, F63Y, R103W, D108E, E114A
On to B9, for which the binding result in [11] was “no binding (tested: log[M] -6.1 (about 8e-7 M))”.

B10: DLLBII015 (VHH, not shown: small tags and cut ends)
VHH: B7 VHH with F29I, S50A, F63Y, R103W, D108E, E114A
Regarding B10, the binding result in test [11] is “no binding (tested: log[M] -6.1 (about 8e-7 M))”.

B11: DLLBII136C07 (VHH, not shown: small tags and cut ends)
VHH: B7 VHH with F63Y, R103W, D108E
As for B11, in [11], the binding result is “no binding (tested: log[M] -6.1 (about 8e-7 M))”.

Values taken from patent US20140120095A1 (Boehringer Ingelheim, published 2014).
